One block for each binder: values may come before it. Where no end group is shown, it is not given here. [ ]: non-standard residue; d: D form. sY = N[C@@H](Cc1ccc(OS(=O)(=O)O)cc1)C(=O)O
Key:
[1] = molecular target: Y1 scFv (human single-chain Fv antibody fragment Y1); test: competition ELISA on glycocalicin; peptide 25μM
[2] = molecular target: Y1 scFv (human single-chain Fv antibody fragment Y1); test: competition ELISA on glycocalicin; peptide 0.5μM
[3] = molecular target: Y1 scFv (human single-chain Fv antibody fragment Y1); test: competition ELISA on glycocalicin; peptide 2.5μM
[4] = molecular target: Y1 scFv (human single-chain Fv antibody fragment Y1); test: competition ELISA on glycocalicin; peptide 200μM
[5] = molecular target: Y1 scFv (human single-chain Fv antibody fragment Y1); test: competition FACS on washed platelets; peptide 2.5μM
[6] = molecular target: Y1 scFv (human single-chain Fv antibody fragment Y1); test: competition FACS on washed platelets; peptide 200μM
[7] = molecular target: Y1 scFv (human single-chain Fv antibody fragment Y1); test: competition ELISA, Y1 scFv on glycocalicin
[8] = molecular target: glycocalicin purified from human platelets (soluble extracellular fragment of GPIbα) (human) (UniProt P07359); test: ELISA on glycocalicin
[9] = molecular target: Y1 scFv (human single-chain Fv antibody fragment Y1); test: competition ELISA on glycocalicin; peptide 25μM; details: remark: other sources report otherwise
[10] = molecular target: Y1 scFv (human single-chain Fv antibody fragment Y1); test: competition ELISA on glycocalicin; peptide 0.5μM; details: remark: other sources report otherwise
[11] = molecular target: Y1 scFv (human single-chain Fv antibody fragment Y1); test: competition ELISA on glycocalicin; peptide 2.5μM; details: remark: other sources report otherwise
[12] = molecular target: Y1 scFv (human single-chain Fv antibody fragment Y1); test: competition ELISA on glycocalicin; peptide 200μM; details: remark: other sources report otherwise
[13] = molecular target: Y1 scFv (human single-chain Fv antibody fragment Y1); test: competition FACS on washed platelets; peptide 2.5μM; details: remark: other sources report otherwise
[14] = molecular target: Y1 scFv (human single-chain Fv antibody fragment Y1); test: competition FACS on washed platelets; peptide 200μM; details: remark: other sources report otherwise
[15] = molecular target: human platelet glycoprotein Ibα (GPIbα) on platelets or in platelet lysates (human) (UniProt P07359); test: cell-based or functional assay
[16] = molecular target: human platelet glycoprotein Ibα (GPIbα) on platelets or in platelet lysates (human) (UniProt P07359); test: FACS on washed platelets, control without peptide
[17] = molecular target: Y1 scFv (human single-chain Fv antibody fragment Y1); test: competition ELISA on glycocalicin; first of three values, peptide taken as 200μM
[18] = molecular target: Y1 scFv (human single-chain Fv antibody fragment Y1); test: competition ELISA on glycocalicin, peptide taken as 25μM
[19] = molecular target: Y1 scFv (human single-chain Fv antibody fragment Y1); test: competition ELISA on glycocalicin, peptide taken as 2.5μM

B2: P-YYY*, PSGL-1 N-terminal peptide sulfated on the third tyrosine (peptide)
peptide: QATEYEYLD[sY]DFLPETE
peptide concentration at which Y1 binding is effectively inhibited [7]: 1 µM

B3: CONY1, Y1 scFv monomer in which the myc tag is deleted or replaced by Lys-Ala-Lys (KAK) (scFv)
scFv: EVQLVESGGGVVRPGGSLRLSCAASGFTFDDYGMSWVRQAPGKGLEWVSGINWNGGSTGYADSVKGRFTISRDNAKNSLYLQMNSLRAEDTAVYYCARMRAPVIWGQGTLVTVSRGGGGSGGGGSGGGGSSELTQDPAVSVALGQTVRITCQGDSLRSYYASWYQQKPGQAPVLVIYGKNNRPSGIPDRFSGSSSGNTASLTITGAQAEDEADYYCNSRDSSGNHVVFGGGTKLTVLG
concentration needed to reach 0.8 OD units [8]: 12.8 微克/毫升

B4: P-1, non-sulfated synthetic peptide of GPIbα residues 268-285 (peptide)
peptide: GDEGDTDLYDYYPEEDTE
residual binding of Y1 (% of baseline) [9]: 71%
residual binding of Y1 (% of baseline) [10]: 88%
residual binding of Y1 (% of baseline) [11]: 94%
residual binding of Y1 (% of baseline) [12]: 61%
residual binding of Y1 (% of baseline, Geo mean) [13]: 106%
residual binding of Y1 (% of baseline, Geo mean) [14]: 87%

B9: EGR negative control peptide (peptide)
peptide: REEGRQHFFLLEGRSSYS
residual binding of Y1 (% of baseline) [1]: 89%
residual binding of Y1 (% of baseline) [2]: 121%
residual binding of Y1 (% of baseline) [3]: 100%
residual binding of Y1 (% of baseline) [4]: 85%
residual binding of Y1 (% of baseline, Geo mean) [5]: 96%
residual binding of Y1 (% of baseline, Geo mean) [6]: 119%

Second part, the binder after the results:

residual binding of Y1 (% of baseline) [1]: 25%
residual binding of Y1 (% of baseline) [2]: 89%
residual binding of Y1 (% of baseline) [3]: 62%
residual binding of Y1 (% of baseline) [4]: 0%
residual binding of Y1 (% of baseline, Geo mean) [5]: 41%
residual binding of Y1 (% of baseline, Geo mean) [6]: 5%
B1: P-1-S, sulfated synthetic peptide of GPIbα residues 268-285 (peptide)
peptide: GDEGDTDL[sY]D[sY][sY]PEEDTE

凝集作用%; washed platelets, ristocetin; Y1 scFv 12.5微克/毫升 [15]: 67%
凝集作用%; washed platelets, ristocetin; Y1 scFv 14微克/毫升 [15]: 92%
凝集作用%; washed platelets, ristocetin; Y1 scFv 25微克/毫升 [15]: 23%
抑制百分比%; platelet-rich plasma, ristocetin; Y1 scFv25微克/毫升 [15]: 13%
抑制百分比%; ristocetin-induced agglutination of washed platelets; Y1 scFv 25微克/毫升 [15]: 77%
抑制百分比%; ristocetin-induced aggregation in platelet-rich plasma; Y1 scFv50微克/毫升 [15]: 80%
抑制百分比%; washed platelets, ristocetin; Y1 scFv 12.5微克/毫升 [15]: 33%
抑制百分比%; washed platelets, ristocetin; Y1 scFv 14微克/毫升 [15]: 8%
聚集作用%; platelet-rich plasma, ristocetin; Y1 scFv25微克/毫升 [15]: 87%
聚集作用%; platelet-rich plasma, ristocetin; Y1 scFv50微克/毫升 [15]: 20%
residual binding of Y1 (% of baseline, Geo mean) [16]: 114%
B5: Y1 scFv (human single-chain Fv antibody fragment Y1) (scFv)
scFv: EVQLVESGGGVVRPGGSLRLSCAASGFTFDDYGMSWVRQAPGKGLEWVSGINWNGGSTGYADSVKGRFTISRDNAKNSLYLQMNSLRAEDTAVYYCARMRAPVIWGQGTLVTVSRGGGGSGGGGSGGGGSSELTQDPAVSVALGQTVRITCQGDSLRSYYASWYQQKPGQAPVLVIYGKNNRPSGIPDRFSGSSSGNTASLTITGAQAEDEADYYCNSRDSSGNHVVFGGGTKLTVLGAAAEQKLISEEDLNGAA

residual binding of Y1 (% of baseline, Geo mean) [5]: 82%
residual binding of Y1 (% of baseline, Geo mean) [6]: 26%
residual binding of Y1 (% of baseline) [17]: 21%
residual binding of Y1 (% of baseline) [18]: 67%
residual binding of Y1 (% of baseline) [19]: 80%
B6: P-3-S, sulfated synthetic peptide of GPIbα residues 268-280 (peptide)
peptide: GDEGDTDL[sY]D[sY][sY]P

residual binding of Y1 (% of baseline, Geo mean) [5]: 61%
residual binding of Y1 (% of baseline, Geo mean) [6]: 7%
residual binding of Y1 (% of baseline) [17]: 15%
residual binding of Y1 (% of baseline) [18]: 52%
residual binding of Y1 (% of baseline) [19]: 78%
B7: P-2-S, sulfated synthetic peptide of GPIbα residues 273-285 (peptide)
peptide: TDL[sY]D[sY][sY]PEEDTE

peptide concentration at which Y1 binding is effectively inhibited [7]: 100 µM
B8: P-Y*YY, PSGL-1 N-terminal peptide sulfated on the first tyrosine (peptide)
peptide: QATE[sY]EYLDYDFLPETE
